From article PMC7938805, “Biophysical and biochemical properties of Deup1 self-assemblies: a potential driver for deuterosome formation during multiciliogenesis” (Biology Open, 2021)

Molecular target: the molecule itself
Assay: fluorescence microscopy of assemblies of purified protein; purified fluorescent protein (100 nM where stated) in 50 mM Tris pH 7.5, 150 mM NaCl, 1.5% glycerol with PEG8000 (up to 6%) or BSA 300 mg/ml as crowding agent, RT 10 min, confocal imaging

B1: mScarlet I-Deup1 (deuterosome protein 1, mouse, longer isoform) (natural protein, UniProt Q7M6Y5-1 1-601, looked up)
chain: MENQAHTTAGASPCEAELQELMEQIDIMVSNKKLDWERKMRALETRLDLRDQELANAQTCLDQKGQEVGLLRQKLDSLEKCNLVMTQNYEGQLQTLKAQFSKLTSNFEKLRLHQMKQNQIHRKESSSKEELPFELSSLNQKLEEFRAKSREWDKQEVLYQTHLVSLDAQQKLLSEKCSQFQKQAQNYQTQLNGKKQCAEDSSSEIPRLVCESDPGCEATQRDEFIIEKLKSAVSEIALSRNKLQDENQKLLQELKMYQRQCQAMEAGLSEVKSELQSRDDLLRIIEMERLHLHRELLRMGEVQTAQDNRKRVESSYSPSPKEAERKRKELFPMVSDQPNHEKELSKMRSQLYQEEGLCSEQERLRSEISELTQELHQKEVTIATVMKKAALLERQLKIELEIKERMLAKQQVSDRRYKAVRTENTHLKGMMGDLDPARYLAVDLSNKKHSQCTSINKLEYENERLRSDLAKLHGNGKAAWPNQSSYGEAGAYVFQSQLKTETSGDRISQDCELNRSPTPLSPLPFQTKEMASPLVGDNEVLALSPPDISFRASLAAQHFLMEEERRAKELEKLLNTHIDELQRHTEFTLNKYTKLKQSRHI
notes: Deuterosome protein 1 (Deup1), mouse, longer isoform NP_001360846, cloned from a mouse lung cDNA library with primers from the start to the stop codon; 601 residues by the fragment limits; Expressed from pGEX 6p-1 modified with a C-terminal 6xHis tag and a TEV site; also called mS-Deup1; full-length Deup1; source: E. coli BL21 gold (DE3), purified (Ni-NTA, glutathione sepharose, eluted with …)
B1: binds.

B2: mScarlet I-Deup1 N-terminus fragment (1-466 a.a.) (domain or fragment, mouse, UniProt Q7M6Y5-1 1-466, looked up)
chain: MENQAHTTAGASPCEAELQELMEQIDIMVSNKKLDWERKMRALETRLDLRDQELANAQTCLDQKGQEVGLLRQKLDSLEKCNLVMTQNYEGQLQTLKAQFSKLTSNFEKLRLHQMKQNQIHRKESSSKEELPFELSSLNQKLEEFRAKSREWDKQEVLYQTHLVSLDAQQKLLSEKCSQFQKQAQNYQTQLNGKKQCAEDSSSEIPRLVCESDPGCEATQRDEFIIEKLKSAVSEIALSRNKLQDENQKLLQELKMYQRQCQAMEAGLSEVKSELQSRDDLLRIIEMERLHLHRELLRMGEVQTAQDNRKRVESSYSPSPKEAERKRKELFPMVSDQPNHEKELSKMRSQLYQEEGLCSEQERLRSEISELTQELHQKEVTIATVMKKAALLERQLKIELEIKERMLAKQQVSDRRYKAVRTENTHLKGMMGDLDPARYLAVDLSNKKHSQCTSINKLEYENERLR
notes: Deuterosome protein 1 (Deup1), mouse, longer isoform NP_001360846, residues 1-466, with multiple coiled coil domains; source: E. coli BL21 gold (DE3), purified (Ni-NTA, glutathione sepharose, eluted with PreScission and TEV protease); not shown: GST, N-terminal, cleaved; mScarlet I, N-terminal, kept; His6, C-terminal, cleaved
B2: binds.
